The text below walks through data of patent US20090304651A1 (published 2009).

Where two headings read alike, the source gives them in different places.

As usually defined, the koff is the rate constant with which the complex falls apart. A word on the kon: it is a measure of how fast the partners come together.

In assay [1] the target is T1, recombinant human IGF-II (Insulin-like Growth Factor II) (human, UniProt P01344 25-91, biotinylated (Biotinyl-IGF-II, GroPep) where immobilised in SPR, site not stated; not biotinylated in ITC and as SPR analyte).
T1 construct: also called IGF2; IGF-2
T1 sequence (P01344 25-91 limits assumed): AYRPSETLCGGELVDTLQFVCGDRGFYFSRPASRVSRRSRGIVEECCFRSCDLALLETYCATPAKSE
The assay is described as follows: SPR, IGF-II immobilised, kinetic fit. On the procedure: (§1) Kinetic analysis by Surface Plasmon Resonance (SPR) was conducted on a BIAcore 3000 biosensor (BIAcore, Uppsala, Sweden) at 25° C. in HBS-EP (10 mM HEPES, pH 7.4, 150 mM NaCl, 3 mM EDTA, 0.005% surfactant P20) at a flow rate of 40 μl/min. […] Kinetic experiments consisted of a two minute injection of analyte followed by a 100 s dissociation phase in running buffer, after which the binding surface was regenerated with a 2 minute injection of 2 M MgCl₂. A blank flow cell was used for in-line reference subtraction of changes due to differences in refractive index of running buffer versus sample and a buffer-only injection was used to subtract instrument noise and drift. Injections were performed in duplicate for each concentration and in a randomised order. Kinetic parameters were determined by global fitting of sensorgrams to a two-state (conformational change) binding model using BIAevaluation software version 4.0.1. In all cases the minor component made an insignificant contribution to the overall affinity and as such only the kinetic parameters of the major binding component were used. For each interaction the dissociation affinity constant (KD) was also calculated by fitting of the response of each concentration at equilibrium to a steady-state affinity model using BIAevaluation. In order to investigate the influence of ionic strength, kinetic experiments were conducted in HBS-EP running buffers containing the desired NaCl concentration. In each case, analyte samples were made up in the appropriate running buffer prior to injection.
(In general: In SPR one partner is held on a chip, and binding of the other changes the refractive index at the surface.)

The target of assay [2] is T1, recombinant human IGF-II (Insulin-like …). Nature of the assay: SPR, IGF-II immobilised, steady state. On the procedure: as §1, with “In order to investigate the influence of ionic strength, kinetic experiments were conducted in HBS-EP running buffers containing the desired NaCl concentration. In each case, analyte samples were made up in the appropriate running buffer prior to injection.” left out

The target is the same in assay [3]. Nature of the assay: SPR, IGF-II immobilised, bivalent analyte model, ka1. On the procedure:
(§2) Kinetic experiments consisted of a two minute injection of analyte followed by a 100 s dissociation phase in running buffer, after which the binding surface was regenerated with a 2 minute injection of 2 M MgCl₂. A blank flow cell was used for in-line reference subtraction of changes due to differences in refractive index of running buffer versus sample and a buffer-only injection was used to subtract instrument noise and drift. Injections were performed in duplicate for each concentration and in a randomised order. Kinetic parameters were determined by global fitting of sensorgrams to a two-state (conformational change) binding model using BIAevaluation software version 4.0.1. In all cases the minor component made an insignificant contribution to the overall affinity and as such only the kinetic parameters of the major binding component were used. For each interaction the dissociation affinity constant (KD) was also calculated by fitting of the response of each concentration at equilibrium to a steady-state affinity model using BIAevaluation. […]
(§3) The affinity of versions of Fc-tagged domain 11 fusion proteins, and domain 11 constructs, for IGF-II were compared using surface plasmon resonance (BIAcore 3000). […] The Fc-tagged domain 11 kinetic data performed in triplicate generated sensorgrams that were analyzed using a bivalent analyte model.

The target is the same in assay [4]. The assay is described as follows: SPR, IGF-II immobilised, bivalent analyte model. On the procedure: as §2, §3
Assay [5] shares this target. Nature of the assay: SPR, IGF-II immobilised, bivalent analyte model, kd1. On the procedure:
as §2, §3

In assay [6] the target is T2, recombinant human IGF-I (Insulin-like Growth Factor I) (human, UniProt P05019 49-118, biotinylated (Biotinyl-IGF-I, GroPep), site not stated).
T2 construct: also called IGF1; Biotinyl-IGF-I
T2 sequence (P05019 49-118 limits assumed): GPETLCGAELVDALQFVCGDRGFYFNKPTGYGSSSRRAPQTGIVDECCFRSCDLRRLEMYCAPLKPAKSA
Nature of the assay: SPR, biotinylated IGF-I immobilised. On the procedure:
(§4) Kinetic experiments consisted of a two minute injection of analyte followed by a 100 s dissociation phase in running buffer, after which the binding surface was regenerated with a 2 minute injection of 2 M MgCl₂. A blank flow cell was used for in-line reference subtraction of changes due to differences in refractive index of running buffer versus sample and a buffer-only injection was used to subtract instrument noise and drift. Injections were performed in duplicate for each concentration and in a randomised order. Kinetic parameters were determined by global fitting of sensorgrams to a two-state (conformational change) binding model using BIAevaluation software version 4.0.1. In all cases the minor component made an insignificant contribution to the overall affinity and as such only the kinetic parameters of the major binding component were used. For each interaction the dissociation affinity constant (KD) was also calculated by fitting of the response of each concentration at equilibrium to a steady-state affinity model using BIAevaluation. In order to investigate the influence of ionic strength, kinetic experiments were conducted in HBS-EP running buffers containing the desired NaCl concentration. In each case, analyte samples were made up in the appropriate running buffer prior to injection.
(§5) The affinity of versions of Fc-tagged domain 11 fusion proteins, and domain 11 constructs, for IGF-II were compared using surface plasmon resonance (BIAcore 3000). Attempts were made to immobilize Fc-tagged domain 11 proteins upon a sensor chip surface (CM5 and CM5-proteinA) but we encountered similar problems as described above with immobilised monomeric domain 11. Instead, immobilisation of biotinylated IGF-I and IGF-II on separate flow cells of a streptavidin coated sensor chip (BIAcore) generated reproducible sensorgram profiles when Fc-tagged and untagged domain 11 proteins were passed over the surface as analytes. The Fc-tagged domain 11 kinetic data performed in triplicate generated sensorgrams that were analyzed using a bivalent analyte model.

Assay [7] has as its target T1, recombinant human IGF-II (Insulin-like …). The assay is described as follows: SPR, biotinylated IGF-II immobilised. On the procedure:
as §2, §3

For assay [8] the target is unchanged. Nature of the assay: SPR, IGF-II immobilised. On the procedure: as §4, §5
For assay [9] the target is unchanged. The assay is described as follows: SPR, IGF-II immobilised, kinetic fit. On the procedure:
(§6) Duplicate analyte injections were performed at concentrations of 4096, 2048, 1024, 512, 256, 128, 64, 32, 16 and 8 nM.
as §1, with “BIAevaluation.” for “BIAevaluation. In order to investigate the influence of ionic strength, kinetic experiments were conducted in HBS-EP running buffers containing the desired NaCl concentration. In each case, analyte samples were made up in the appropriate running buffer prior to injection.”
This is another data set of the same source.

For assay [10] the target is unchanged. The assay is described as follows: SPR, IGF-II immobilised, steady state. On the procedure: as §6
as §1, with “BIAevaluation.” for “BIAevaluation. In order to investigate the influence of ionic strength, kinetic experiments were conducted in HBS-EP running buffers containing the desired NaCl concentration. In each case, analyte samples were made up in the appropriate running buffer prior to injection.”
This is another data set of the same source.

Assay [11] shares this target. Nature of the assay: SPR, IGF-II immobilised, kinetic fit. The method in brief: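 Biotinylated IGF-II (~50 RU) was captured on a streptavidin Sensor Chip SA, and domain 11 proteins, secreted from Pichia pastoris and purified by His-tag, were injected over it in duplicate and in randomised order. A BIAcore 3000 was run at 25° C in HBS-EP at 40 μl/min, with 2 min injections, 100 s dissociation and regeneration with 2 M MgCl₂. Analyte concentrations spanned 4096–8 nM, or 16384–32 nM for three constructs. After subtraction of blank flow cell and buffer injection signals, association rates, dissociation rates and Kd were obtained by global fitting of sensorgrams in BIAevaluation 4.0.1.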
This is another data set of the same source.

The target is the same in assay [12]. The assay is described as follows: SPR, IGF-II immobilised, steady state. The method in brief:
(§7)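 Biotinylated IGF-II (~50 RU) on a streptavidin Sensor Chip SA served as the surface for duplicate injections of His-tag-purified domain 11 proteins made by secretion in Pichia pastoris. On a BIAcore 3000 at 25° C, 2 min injections in HBS-EP flowed at 40 μl/min over a range of 4096–8 nM, or 16384–32 nM for three constructs. After subtracting the blank flow cell and buffer injections, equilibrium responses were fitted in BIAevaluation to a steady-state affinity model to give Kd, with relative affinity referenced to the unaltered domain 11 protein.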
The source holds these as a separate data set.

The target is the same in assay [13]. Nature of the assay: SPR, steady-state KD relative to wild type. On the procedure:
as §6
as §1, with “BIAevaluation.” for “BIAevaluation. In order to investigate the influence of ionic strength, kinetic experiments were conducted in HBS-EP running buffers containing the desired NaCl concentration. In each case, analyte samples were made up in the appropriate running buffer prior to injection.”

Assay [14] shares this target. The assay is described as follows: SPR, steady-state KD relative to wild type. The method in brief: as §7
The source holds these as a separate data set.

B1: IGF2R domain 11 expressed in E. coli (pET-15), refolded and purified (receptor)
chain: NEHDDCQVTNPSTGHLFDLSSLSGRAGFTAAYSEKGLVYMSICGENENCPPGVGACFGQTRISVGKANKRLRYVDQVLQLVYKDGSPCPSKSGLSYKSVISFVCRPEAGPTNRPMLISLDKQTCTLFFSWHTPLACEQAT
notes: also called purified 11 from E. coli; native domain 11 protein
Take B1: in [1], the Kd stood at 114 nM, the koff was found to be 0.063 s⁻¹ and the kon was 553000 M⁻¹ s⁻¹. Also, in assay [2], the Kd is 114 nM.

B2: Fc-tagged wild-type IGF2R domain 11 (11-Fc), human IgG1 Fc at the C-terminus, homodimer from Drosophila D.Mel-2 cells (Fc fusion)
chain: NEHDDCQVTNPSTGHLFDLSSLSGRAGFTAAYSEKGLVYMSICGENENCPPGVGACFGQTRISVGKANKRLRYVDQVLQLVYKDGSPCPSKSGLSYKSVISFVCRPEAGPTNRPMLISLDKQTCTLFFSWHTPLACEQAT
modifications: N-glycosylated with two 982.9 Da molecules of Man3GlcNAc2
notes: also called 11^Wild type-Fc; 11^Wild type -Fc; not shown: human IgG1 Fc domain, amplified from IMAGE clone 4851063
Consider B2, for which the kon in assay [3] was found to be 1.36e+06 M⁻¹ s⁻¹. Further, the Kd in [4] turned out to be 3.26 nM. The koff in assay [5] came to 0.00445 s⁻¹. Moreover, in assay [6], the binding result is on record as “no binding”.

B3: Fc-tagged null mutant IGF2R domain 11 (11^I1572A-Fc), human IgG1 Fc at the C-terminus, homodimer from Drosophila D.Mel-2 cells (Fc fusion)
chain: NEHDDCQVTNPSTGHLFDLSSLSGRAGFTAAYSEKGLVYMSICGENENCPPGVGACFGQTRASVGKANKRLRYVDQVLQLVYKDGSPCPSKSGLSYKSVISFVCRPEAGPTNRPMLISLDKQTCTLFFSWHTPLACEQAT
modifications: N-glycosylated with two 982.9 Da molecules of Man3GlcNAc2
notes: not shown: human IgG1 Fc domain, amplified from IMAGE clone 4851063
Consider B3, for which the binding result in [6] and in [7] was “no binding” in each case.

B4: Fc-tagged enhanced mutant IGF2R domain 11 (11^E1544K-Fc), human IgG1 Fc at the C-terminus, homodimer from Drosophila D.Mel-2 cells (Fc fusion)
chain: NEHDDCQVTNPSTGHLFDLSSLSGRAGFTAAYSKKGLVYMSICGENENCPPGVGACFGQTRISVGKANKRLRYVDQVLQLVYKDGSPCPSKSGLSYKSVISFVCRPEAGPTNRPMLISLDKQTCTLFFSWHTPLACEQAT
modifications: N-glycosylated with two 982.9 Da molecules of Man3GlcNAc2
notes: as for B3
For B4, in assay [8], the “Ru response amplitude relative to 11-Fc at equal concentrations” value was roughly 2 fold and the “molar affinity relative to 11-Fc” value is roughly 2 fold. The kon in [3] was found to be 2.23e+06 M⁻¹ s⁻¹. In addition, the Kd in [4] amounted to 1.79 nM. Besides, the koff in assay [5] was 0.00401 s⁻¹. The binding result in assay [6] was “no binding”.

B5: IGF2R domain 11 E1544V (amino acids 1511-1650, C-terminal His6 tag, from Pichia pastoris) (receptor)
chain: NEHDDCQVTNPSTGHLFDLSSLSGRAGFTAAYSVKGLVYMSICGENENCPPGVGACFGQTRISVGKANKRLRYVDQVLQLVYKDGSPCPSKSGLSYKSVISFVCRPEAGPTNRPMLISLDKQTCTLFFSWHTPLACEQATHHHHHH
Regarding B5, the Kd was found to be 49.8 nM in assay [9], 52.7 nM in assay [10], 60.5 nM in assay [11] and 52.7 nM in assay [12]. For the same molecule, the results for the koff in assay [9] and in assay [11] were 0.041 s⁻¹ and 0.0675 s⁻¹, respectively. In addition, the kon in assay [9] was 837000 M⁻¹ s⁻¹; in assay [11] it was 1.12e+06 M⁻¹ s⁻¹. The “Relative Affinity” value in assay [13] and in [14] was 1.96 fold (wild type = 1.00) in each case.

B6: IGF2R domain 11 I1572A (amino acids 1511-1650, C-terminal His6 tag, from Pichia pastoris) (receptor)
chain: NEHDDCQVTNPSTGHLFDLSSLSGRAGFTAAYSEKGLVYMSICGENENCPPGVGACFGQTRASVGKANKRLRYVDQVLQLVYKDGSPCPSKSGLSYKSVISFVCRPEAGPTNRPMLISLDKQTCTLFFSWHTPLACEQATHHHHHH
notes: also called null mutant
As for B6, the binding result in assay [6] is listed as “no binding (tested: 16384 nM highest analyte concentration)”.

B7: IGF2R domain 11 with cysteine at position 1544 (E1544C) (receptor)
chain: NEHDDCQVTNPSTGHLFDLSSLSGRAGFTAAYSCKGLVYMSICGENENCPPGVGACFGQTRISVGKANKRLRYVDQVLQLVYKDGSPCPSKSGLSYKSVISFVCRPEAGPTNRPMLISLDKQTCTLFFSWHTPLACEQATHHHHHH
For the molecule B7, the binding result in assay [8] is given as “binds”.
